From patent publication US8525237

Assays:
[1] = target: M13 bacteriophage incorporated into PEDOT nanowires (M13 bacteriophage); assay: electrical resistance of virus-PEDOT nanowire array in PBF
[2] = target: M13 bacteriophage incorporated into PEDOT nanowires (M13 bacteriophage); assay: electrical resistance of virus-PEDOT nanowire array in PBF, 99 nM antibody

For “Anti-M13 antibody (p-Ab, GE Healthcare Life Sciences)”, the limit of detection [1] was 20 nM and the increase in the resistance (ΔR/R0) at 99 nM antibody [2] was 40%.
